Tests used:
[1] = molecular target: c-Src SH2; assay: SH2 binding enrichment of the phosphorylated peptide, bacterial display (enrichment ratio); higher = better substrate or ligand; peptides without Tyr show the background
[2] = molecular target: SHP2-C SH2; assay: as above
[3] = molecular target: Grb2 SH2 (UniProt P62993); assay: as above
[4] = molecular target: Fes (UniProt P07332); assay: phosphorylation enrichment, bacterial display (enrichment ratio); higher = better substrate or ligand; peptides without Tyr show the background
Chain of Fes (P07332 whole entry, looked up): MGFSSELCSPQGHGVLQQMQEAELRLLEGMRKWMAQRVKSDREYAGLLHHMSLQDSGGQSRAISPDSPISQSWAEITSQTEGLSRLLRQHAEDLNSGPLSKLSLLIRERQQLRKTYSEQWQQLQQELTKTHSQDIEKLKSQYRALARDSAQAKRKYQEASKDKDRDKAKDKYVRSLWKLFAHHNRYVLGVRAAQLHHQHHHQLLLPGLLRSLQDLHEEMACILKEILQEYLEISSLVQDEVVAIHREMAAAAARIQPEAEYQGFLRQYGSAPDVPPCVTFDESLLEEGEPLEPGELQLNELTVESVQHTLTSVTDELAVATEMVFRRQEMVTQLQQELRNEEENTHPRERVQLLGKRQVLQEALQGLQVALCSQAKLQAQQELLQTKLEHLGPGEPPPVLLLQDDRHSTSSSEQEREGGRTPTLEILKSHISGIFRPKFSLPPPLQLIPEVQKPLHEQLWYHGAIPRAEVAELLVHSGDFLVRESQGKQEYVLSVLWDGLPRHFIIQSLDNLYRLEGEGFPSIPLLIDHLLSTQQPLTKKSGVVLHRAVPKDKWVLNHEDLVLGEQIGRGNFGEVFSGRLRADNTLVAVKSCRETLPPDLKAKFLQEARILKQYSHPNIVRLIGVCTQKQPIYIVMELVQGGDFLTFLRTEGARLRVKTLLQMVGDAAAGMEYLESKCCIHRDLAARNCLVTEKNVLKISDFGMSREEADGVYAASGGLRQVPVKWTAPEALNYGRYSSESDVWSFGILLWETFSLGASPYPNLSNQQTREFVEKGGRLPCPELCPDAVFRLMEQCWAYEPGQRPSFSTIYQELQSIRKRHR

[5] = molecular target: EPHB1 (UniProt P54762); assay: as above
Chain of EPHB1 (P54762 whole entry, looked up): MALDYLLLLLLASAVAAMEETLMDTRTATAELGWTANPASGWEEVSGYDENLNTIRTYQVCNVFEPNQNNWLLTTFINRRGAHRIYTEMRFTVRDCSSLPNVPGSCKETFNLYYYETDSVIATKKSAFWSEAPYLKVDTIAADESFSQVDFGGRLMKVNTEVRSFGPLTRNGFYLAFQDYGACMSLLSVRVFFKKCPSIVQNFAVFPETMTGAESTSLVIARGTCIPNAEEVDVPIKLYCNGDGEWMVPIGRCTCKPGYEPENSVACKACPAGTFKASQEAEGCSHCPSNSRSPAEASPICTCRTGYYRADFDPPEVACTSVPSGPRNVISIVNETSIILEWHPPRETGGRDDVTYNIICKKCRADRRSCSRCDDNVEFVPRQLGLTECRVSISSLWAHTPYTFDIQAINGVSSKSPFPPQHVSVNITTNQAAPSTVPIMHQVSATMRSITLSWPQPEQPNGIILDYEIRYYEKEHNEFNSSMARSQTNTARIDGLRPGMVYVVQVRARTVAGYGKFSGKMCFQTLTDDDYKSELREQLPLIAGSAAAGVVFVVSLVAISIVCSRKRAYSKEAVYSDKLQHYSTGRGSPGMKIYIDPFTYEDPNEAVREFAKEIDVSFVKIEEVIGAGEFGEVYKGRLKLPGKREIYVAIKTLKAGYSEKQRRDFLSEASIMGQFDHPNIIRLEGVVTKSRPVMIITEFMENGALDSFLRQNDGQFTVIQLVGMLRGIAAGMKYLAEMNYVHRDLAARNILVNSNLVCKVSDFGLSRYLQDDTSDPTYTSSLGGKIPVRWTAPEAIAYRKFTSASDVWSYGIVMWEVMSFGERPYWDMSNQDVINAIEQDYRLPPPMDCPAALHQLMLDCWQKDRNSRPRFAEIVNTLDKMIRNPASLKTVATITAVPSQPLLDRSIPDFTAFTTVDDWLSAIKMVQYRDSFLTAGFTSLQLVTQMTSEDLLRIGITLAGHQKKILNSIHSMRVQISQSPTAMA

[6] = molecular target: FGFR3 (UniProt P22607); assay: as above
Chain of FGFR3 (P22607 whole entry, looked up): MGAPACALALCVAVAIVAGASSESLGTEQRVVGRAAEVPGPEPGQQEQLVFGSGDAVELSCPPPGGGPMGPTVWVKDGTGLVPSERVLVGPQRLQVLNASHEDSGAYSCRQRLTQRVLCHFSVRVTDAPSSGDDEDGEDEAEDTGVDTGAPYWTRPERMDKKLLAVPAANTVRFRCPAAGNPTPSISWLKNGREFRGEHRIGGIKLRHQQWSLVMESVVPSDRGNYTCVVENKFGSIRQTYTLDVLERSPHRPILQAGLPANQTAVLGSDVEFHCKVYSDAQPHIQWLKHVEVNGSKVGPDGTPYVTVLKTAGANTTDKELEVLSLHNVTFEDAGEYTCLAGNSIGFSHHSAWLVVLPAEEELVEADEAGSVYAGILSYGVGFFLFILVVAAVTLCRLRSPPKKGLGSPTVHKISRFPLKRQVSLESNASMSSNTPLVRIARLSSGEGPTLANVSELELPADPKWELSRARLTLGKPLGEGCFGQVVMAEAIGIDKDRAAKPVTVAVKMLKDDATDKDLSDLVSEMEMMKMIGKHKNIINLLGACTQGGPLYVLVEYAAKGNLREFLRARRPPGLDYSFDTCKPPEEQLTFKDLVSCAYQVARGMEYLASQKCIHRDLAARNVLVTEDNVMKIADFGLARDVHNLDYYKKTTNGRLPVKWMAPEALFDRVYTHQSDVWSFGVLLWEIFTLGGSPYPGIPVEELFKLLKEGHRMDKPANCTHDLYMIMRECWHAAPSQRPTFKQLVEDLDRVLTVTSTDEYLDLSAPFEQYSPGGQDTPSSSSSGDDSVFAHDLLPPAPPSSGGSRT

[7] = molecular target: Jak2 (UniProt O60674); assay: as above
[8] = test system: c-Abl (mouse); assay: as above
[9] = molecular target: FGFR1 (UniProt P11362); assay: as above
Chain of FGFR1 (P11362 whole entry, looked up): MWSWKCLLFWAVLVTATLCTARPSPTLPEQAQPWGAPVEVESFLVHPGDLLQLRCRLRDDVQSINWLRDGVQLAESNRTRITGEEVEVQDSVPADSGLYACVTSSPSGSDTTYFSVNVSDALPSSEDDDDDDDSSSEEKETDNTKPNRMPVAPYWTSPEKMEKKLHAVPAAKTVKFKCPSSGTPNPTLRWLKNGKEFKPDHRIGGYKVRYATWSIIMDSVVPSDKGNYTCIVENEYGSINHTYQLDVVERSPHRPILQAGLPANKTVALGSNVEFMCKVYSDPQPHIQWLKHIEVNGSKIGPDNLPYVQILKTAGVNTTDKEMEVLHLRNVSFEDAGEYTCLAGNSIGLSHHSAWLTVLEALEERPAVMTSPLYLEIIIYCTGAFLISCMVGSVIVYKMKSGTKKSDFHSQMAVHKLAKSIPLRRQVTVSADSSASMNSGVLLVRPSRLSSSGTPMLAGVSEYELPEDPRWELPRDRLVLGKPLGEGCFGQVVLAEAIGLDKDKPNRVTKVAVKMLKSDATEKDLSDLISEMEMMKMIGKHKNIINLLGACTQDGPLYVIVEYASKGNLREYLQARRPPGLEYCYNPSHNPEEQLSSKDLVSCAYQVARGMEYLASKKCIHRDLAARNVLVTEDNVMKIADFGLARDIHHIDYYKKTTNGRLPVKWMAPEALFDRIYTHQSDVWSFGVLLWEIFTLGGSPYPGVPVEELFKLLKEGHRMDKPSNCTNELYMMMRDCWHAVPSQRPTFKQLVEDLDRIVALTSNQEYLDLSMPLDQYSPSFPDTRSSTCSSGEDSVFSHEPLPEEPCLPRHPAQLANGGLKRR

[10] = molecular target: MERTK (UniProt Q12866); assay: as above
[11] = test system: Fer (mouse); assay: as above
[12] = test system: AncSZ; assay: as above
[13] = molecular target: EPHB2 (UniProt P29323); assay: as above
[14] = molecular target: Hck (UniProt P08631); assay: as above
Chain of Hck (P08631 whole entry, looked up): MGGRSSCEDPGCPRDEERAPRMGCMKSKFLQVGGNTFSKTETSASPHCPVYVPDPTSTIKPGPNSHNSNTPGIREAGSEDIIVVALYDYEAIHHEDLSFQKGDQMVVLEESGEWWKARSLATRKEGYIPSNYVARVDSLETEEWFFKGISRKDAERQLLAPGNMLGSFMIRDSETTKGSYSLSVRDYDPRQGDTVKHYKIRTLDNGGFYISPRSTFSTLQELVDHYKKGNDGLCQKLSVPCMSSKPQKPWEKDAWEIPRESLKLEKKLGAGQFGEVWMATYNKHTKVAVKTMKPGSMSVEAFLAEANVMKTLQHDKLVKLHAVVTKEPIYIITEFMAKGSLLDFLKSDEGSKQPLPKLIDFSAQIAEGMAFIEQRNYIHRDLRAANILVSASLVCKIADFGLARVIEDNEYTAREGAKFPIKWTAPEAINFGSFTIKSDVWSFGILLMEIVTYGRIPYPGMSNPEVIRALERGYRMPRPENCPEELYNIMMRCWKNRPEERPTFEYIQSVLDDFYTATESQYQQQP

[15] = test system: c-Src; assay: as above
[16] = molecular target: Fyn (UniProt P06241); assay: as above
Chain of Fyn (P06241 whole entry, looked up, the tested form may be a part): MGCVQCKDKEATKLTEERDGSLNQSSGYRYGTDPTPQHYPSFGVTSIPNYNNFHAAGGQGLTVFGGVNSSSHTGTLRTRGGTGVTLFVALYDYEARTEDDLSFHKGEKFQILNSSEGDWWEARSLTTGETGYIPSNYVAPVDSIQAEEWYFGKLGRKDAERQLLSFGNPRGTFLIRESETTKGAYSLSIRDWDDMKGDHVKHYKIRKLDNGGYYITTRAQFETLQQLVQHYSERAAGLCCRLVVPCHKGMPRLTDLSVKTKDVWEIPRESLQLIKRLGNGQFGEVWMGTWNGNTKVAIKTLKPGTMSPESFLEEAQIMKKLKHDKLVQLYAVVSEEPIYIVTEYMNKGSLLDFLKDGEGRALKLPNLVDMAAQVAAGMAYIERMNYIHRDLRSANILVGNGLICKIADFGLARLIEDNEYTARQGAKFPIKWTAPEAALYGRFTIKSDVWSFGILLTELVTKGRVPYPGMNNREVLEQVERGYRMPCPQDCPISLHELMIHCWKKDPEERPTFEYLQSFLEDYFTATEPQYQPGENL
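Throughout, for SH2 binding enrichment of the phosphorylated peptide, bacterial display: peptide library displayed on the E. coli surface as eCPX fusions, selected cells deep-sequenced, score is each peptide's frequency after selection divided by its frequency in the input.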
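Throughout, for phosphorylation enrichment, bacterial display: 11-residue human phosphosite peptides and single-mutation variants displayed on the E. coli surface, counted by deep sequencing, each peptide's frequency after selection divided by its frequency in the unselected input library; frequency after pTyr selection over input frequency; kinase dosed for 20-30% of maximal phosphorylation in three min.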

Chain of Grb2 SH2 (P62993 whole entry, looked up): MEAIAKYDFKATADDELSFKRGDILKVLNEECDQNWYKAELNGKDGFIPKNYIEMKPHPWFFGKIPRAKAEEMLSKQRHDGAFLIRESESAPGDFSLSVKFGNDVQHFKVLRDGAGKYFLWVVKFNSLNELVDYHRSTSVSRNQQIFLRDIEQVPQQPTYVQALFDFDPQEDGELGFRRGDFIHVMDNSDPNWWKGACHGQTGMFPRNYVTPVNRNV

Sequence	SH2 binding enrichment [1]	SH2 binding enrichment [2]	SH2 binding enrichment [3]	phosphorylation enrichment [4]	phosphorylation enrichment [5]	phosphorylation enrichment [6]	phosphorylation enrichment [7]	phosphorylation enrichment [8]	phosphorylation enrichment [9]	phosphorylation enrichment [10]	phosphorylation enrichment [11]	phosphorylation enrichment [12]	phosphorylation enrichment [13]	phosphorylation enrichment [14]	phosphorylation enrichment [15]	phosphorylation enrichment [16]
QEALEYFMKQV [PIK3CA_Y1038_M1043V]	0.472	1.05	0.664	0.978	0.467	0.565	0.849	0.597	0.408	0.289	0.402	1.18	0.392	0.416	0.463	0.382
NTGDDYDLYGG [PTPN11_Y63_Y62D]	0.522	0.521	0.804	1.17	0.581	0.683	0.912	0.684	0.51	0.494	0.775	1.33	1.05	2.47	1.65	1.51
AGADGYGFLAP [FOXL2_Y186_YF]	0.456	0.661	0.832	0.737	0.391	0.694	0.857	0.698	0.652	0.618	0.611	0.846	0.508	0.71	0.797	0.517
ITNVLYHVVGW [GBA_Y412_L410V]	1.27	1.24	1.78	1.25	2.31	5.06	1.87	4.13	6.43	6.81	1.82	1.06	1.32	4.59	3.13	3.01
ECKETYHEGEC [PRKN_Y372_A371T]	0.889	0.75	0.884	1.62	0.608	0.808	1.62	1.03	0.721	0.629	0.696	1.47	0.728	0.694	0.645	0.649
MIHSAYALGGL [CPS1_Y590_R587H]	0.716	0.64	0.883	0.592	0.36	0.471	0.502	0.373	0.388	0.409	0.626	0.53	0.428	0.464	0.489	0.566
PLKFLYPNIDR [STAT1_Y668_K673R_YF]	0.818	0.8	0.969	1.24	0.941	0.953	1.06	0.891	0.443	0.519	0.602	1.31	0.664	0.6	0.55	0.796
KKEGPYDVVVL [PARK7_Y67]	0.827	0.629	0.801	0.776	0.492	0.546	0.691	0.631	0.494	0.7	6.5	0.675	0.49	0.57	1.33	1.01
CDKEFYSVHNK [MET_Y1235_Y1230C_YF]	0.727	0.902	1	0.827	0.461	0.606	0.68	0.55	0.441	0.423	0.405	0.732	0.586	0.46	0.491	0.504
AAQNCYKVTNA [TPI1_Y105_G110A]	0.608	0.639	1.15	0.639	0.355	0.46	0.552	0.466	0.367	0.62	0.354	0.522	0.455	0.36	0.44	0.454
QRCYVYYYSYL [PTEN_Y176_R173C]	0.587	0.542	0.927	2.08	1.18	2.56	4.07	1.53	2.09	2.61	1.22	1.86	1.45	1.35	3.53	1.44
VIEQRYNETWL [SLC2A4_Y56_S55R]	0.605	0.497	0.92	1.05	0.467	0.553	0.744	0.659	0.516	0.381	0.457	0.809	0.519	0.468	0.402	0.538
SSPQLYLVPFL [TAF4_Y652_P651L]	0.721	1.21	1.35	0.974	4.26	2.11	7	13.2	2.18	7.97	1.23	1.3	3.08	0.907	0.721	0.7
AFGGGYGGVLT [KRT19_Y65_YF]	0.455	0.719	0.784	0.647	0.478	0.446	0.625	0.685	0.338	0.286	0.312	0.699	0.407	0.454	0.38	0.378
RLEPVYFVAPA [LAMC2_Y250_D247E]	0.625	0.709	0.798	1.02	7.02	8.72	1.7	9.14	9.12	7.77	0.985	2.59	6.76	7.76	6.33	9.5
RRIHSYRGHVW [VHL_Y112_L116V]	0.396	0.25	0.578	0.99	0.733	0.965	1.35	0.848	0.899	1.12	0.559	1.56	0.486	0.736	1.04	0.861
TDHLRYFDSNK [ARAP1_Y359]	0.507	0.714	0.968	0.794	0.611	0.573	0.665	1.14	0.414	0.466	0.456	1.04	0.442	0.451	0.41	0.428

Sequence	SH2 binding enrichment [1]	SH2 binding enrichment [2]	SH2 binding enrichment [3]	phosphorylation enrichment [4]	phosphorylation enrichment [5]	phosphorylation enrichment [6]	phosphorylation enrichment [7]	phosphorylation enrichment [8]	phosphorylation enrichment [9]	phosphorylation enrichment [10]	phosphorylation enrichment [11]	phosphorylation enrichment [12]	phosphorylation enrichment [13]	phosphorylation enrichment [14]	phosphorylation enrichment [15]	phosphorylation enrichment [16]
KPGVNYFFRVS	0.463	0.749	0.863	1.32	0.495	0.697	0.986	0.73	0.376	0.358	0.41	1.06	0.472	0.479	0.374	0.348
FPRAWCRRSIA [KIAA1109_Y4272_Y4272C]	0.464	0.4	0.759	0.686	0.519	0.441	0.588	0.641	0.48	0.562	0.455	0.908	0.484	0.466	0.523	0.557
ILGLEYSLRVP [HELZ2_Y1304]	0.484	0.938	0.782	1.22	0.49	0.637	1.05	0.753	0.573	0.431	0.48	1.03	0.733	0.567	0.947	0.515
REGAKYVSHGA [ASS1_Y113]	0.415	0.322	0.602	0.628	0.553	0.501	0.47	0.339	0.385	0.403	0.566	0.5	0.4	0.399	0.275	0.378
STSFDYCRVPM [BST2_Y8_YF]	0.558	0.571	0.675	1.32	9.03	3.97	2.03	0.932	5.41	0.903	0.827	2.98	5.96	1.57	0.957	0.828
GLPQTYCVSGP [DYSF_Y1684]	0.611	0.528	0.839	0.978	0.72	0.655	0.609	0.583	0.497	0.605	0.559	0.978	0.667	0.631	0.524	0.629
EKRDAYVSRLN [GSR_Y150]	0.43	0.608	0.772	0.575	0.455	0.441	0.48	0.423	0.418	0.397	0.328	0.547	0.434	0.429	0.377	0.351
SILTVYSKDNF [PANK2_Y400_A398T_YF]	0.466	0.73	0.838	0.894	0.549	0.627	0.907	0.456	0.572	0.454	0.481	0.814	0.514	0.548	0.6	0.516
AAGGRYDGLLG [HARS2_Y364_V368L]	0.545	0.633	0.785	0.85	0.471	0.531	0.645	1.01	0.457	0.451	0.452	0.631	0.415	0.459	0.468	0.548
LRAGVYHEKDQ [DNM2_Y626_P627H]	0.445	0.657	0.92	1.29	0.629	0.763	1.08	0.877	0.635	0.491	0.509	0.735	0.451	0.605	0.617	0.608
QNTGDDYDLYG [PTPN11_Y62_Y62D]	0.58	0.803	0.92	1.56	0.985	1.51	1.9	0.841	0.82	0.697	0.674	2.09	1.63	1.86	1.99	1.35
KLADVYQAELR [GFAP_Y116]	0.486	0.561	0.844	0.792	0.533	0.667	0.549	0.549	0.472	0.429	0.445	0.789	0.459	0.47	0.634	0.492
DDKEYYSVHNK [MET_Y1235_Y1230D]	0.461	0.961	0.813	1.06	0.563	1.51	1.17	0.942	1.6	0.405	0.603	1.93	0.629	0.791	0.874	0.529
SYCYRYRCAPR [SUMF1_Y344_A348P]	0.434	0.63	0.625	0.572	0.441	0.716	0.459	0.493	0.511	0.458	0.528	0.644	0.418	0.43	0.488	0.436
SVTCAYSPALN [TP53_Y126_T125A]	0.457	0.66	0.802	1.2	0.726	0.757	0.98	0.79	0.557	0.525	0.64	1.26	0.577	0.608	0.583	0.616
GIYSGYDDAWD [POLR1C_Y36_N32I]	5.53	0.632	0.854	1.09	2.36	0.647	1.05	0.835	0.568	2.25	1.46	1.44	2.5	5.99	5.63	7.64

Reference: the supplement of paper PMC10065799, “High-throughput profiling of sequence recognition by tyrosine kinases and SH2 domains using bacterial peptide display” (eLife, 2023)
